{"source": "paper PMC4522956", "about": "(2015)", "binders": {"B1": {"name": "HIF-1α PASb (domain or fragment)", "chain": "not shown"}, "B2": {"name": "C-terminal Per-Arnt-Sim (PASb) domain of human HIF-3α9 (domain or fragment)", "chain": "GAFLSRHSLDMKFTYCDDRIAEVAGYSPDDLIGCSAYEYIHALDSDAVSKSIHTLLSKGQAVTGQYRFLARSGGYLWTQTQATVVSGGRGPQSESIVCVHFLISQVEET"}}, "key": {"[1]": {"molecular_target": "T1, HIF-1β PASb labeled with FITC (human (cDNA library from the breast …, UniProt P27540 349-467, FITC (fluorescein isothiocyanate) label, sites not stated))", "T1 sequence (P27540 349-467)": "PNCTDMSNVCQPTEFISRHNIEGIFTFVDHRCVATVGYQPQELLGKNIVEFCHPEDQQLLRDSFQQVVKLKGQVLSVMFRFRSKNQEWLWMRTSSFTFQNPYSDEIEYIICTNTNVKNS", "assay": "FP; at equilibrium"}, "[2]": {"molecular_target": "T1, HIF-1β PASb labeled with FITC", "assay": "FP; PASb-3α with linoleic acid, at equilibrium"}, "[3]": {"molecular_target": "T1, HIF-1β PASb labeled with FITC", "assay": "FP; PASb-3α with bacterial lipids, at equilibrium"}}}
{"binder": "B1", "values": [{"measurement": "Kd", "setting": "[1]", "value": 36, "unit": "µM"}]}
{"binder": "B2", "values": [{"measurement": "Kd", "setting": "[2]", "value": 10, "unit": "µM"}, {"measurement": "Kd", "setting": "[3]", "value": 12, "unit": "µM"}]}
